Reference: US20260234247A1 (published 2026)
Changes are numbered by the printed parent chain.

B1: LK-RB1-34 (antibody, human IgG4 S228P, kappa, V domains shown)
VH: QVQLQQSGAELVKPGASVKLSCKASGYTFTEYTIHWVKQRSGQGLEWIGWFYPGSDSIKYNEKFKDKATLTADKSSSTVYMELSRLTSEDSAVYFCSRHEGPYFTSQYYFDYWGQGTTLTVSS
VL: DILLTQSPAILSVSPGERVSFSCRASRYIGTSIHWYQQRTNGSPRLLIKYASESISGIPSRFSGSGSGTDFTLSINSVESEDIADYYCQQSNTWPLTFGAGTKLELKR
B2: LK-RB1-53 (antibody, human IgG4 S228P, kappa)
heavy: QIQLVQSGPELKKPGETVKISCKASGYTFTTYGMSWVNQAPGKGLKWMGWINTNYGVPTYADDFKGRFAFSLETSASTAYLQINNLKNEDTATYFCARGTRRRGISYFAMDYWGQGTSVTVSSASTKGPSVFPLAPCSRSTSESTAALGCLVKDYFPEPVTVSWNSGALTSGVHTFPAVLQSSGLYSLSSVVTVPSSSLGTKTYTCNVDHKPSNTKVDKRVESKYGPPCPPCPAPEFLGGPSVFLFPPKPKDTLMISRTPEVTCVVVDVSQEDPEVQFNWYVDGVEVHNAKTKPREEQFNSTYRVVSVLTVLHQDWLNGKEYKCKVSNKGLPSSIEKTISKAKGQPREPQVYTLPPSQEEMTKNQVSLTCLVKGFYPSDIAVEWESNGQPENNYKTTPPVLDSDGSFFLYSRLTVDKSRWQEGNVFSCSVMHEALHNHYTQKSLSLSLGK
light: DIVMTQSQKFMSTTVGDRVSITCKASQNVGTAVAWYQQKPGQSPKLLIYSASNRYTGVPDRFTGSDSGTDFTLTINNIQSEDLADYFCQQYSSYPLTFATGTKLELKRTVAAPSVFIFPPSDEQLKSGTASVVCLLNNFYPREAKVQWKVDNALQSGNSQESVTEQDSKDSTYSLSSTLTLSKADYEKHKVYACEVTHQGLSSPVTKSFNRGEC
B3: LK-RB1-39 (antibody, human IgG4 S228P, kappa, V domains shown)
VH: EVQLQQSGAELVRPGASVKLSCTASGFNIKDDYVHWVNQRPEQGLEWIGWIDPENGDTGYASKFQDKATITADTSSNTAYLHLSSLTSEDTAVYYCTTTRWTGSYWGQGTTLTVSS
VL: QIVLTQSPAIMSASPGEKVTITCSASSSVNYMHWFQQKPGSSPKLWIYSTANLASGVPARFSGSGSGTSYSLTISRMEAEDAATYYCQQRSSYPPTWTFGGGTKLEIKR
B4: LK-RB1-47 (antibody, human IgG4 S228P, kappa, V domains shown)
VH: QIQLVQSGPELKKPGETVKISCKASGYTFTTYGMSWVKQAPGKGLKWMGWINTYSGVPTYTDDFKGRFAFSVETSASTAYLQINNLKNEDTATYFCARRERDFYGNIFFPYWGQGSLVTVSA
VL: DIQMTQTTSSLSASLGDRVTISCRASQDISNYLNWYQQKPDGTVKLLIYYTSRIHSGVPSRFSGSGSGTDFSLTISNLDQEDIATYFCQQGHTLPWTFGGGTKVEIKR
B5: LK-RB1-49 (antibody, human IgG4 S228P, kappa, V domains shown)
VH: QIQLVQSGPELKKPGETVKISCKASGYTFTTYGMSWVKQAPGKGLKWMGWINTYSGVPTYADDFKGRFAFSLETSGSTAYLQISNLKNEDTATYFCSRLFRSWDSYAMDYWGQGTSVTVSS
VL: DIVMTQSQKFMSATVGDRVSITCKASQNVGTAVAWYQQKPGQSPKLLIYSPSNRYTGVPDRFTGSGSGTHFTLTINNMQSEDLADYFCQQYSTYPLTFGAGTKLELNR
B6: LK-RB1-42 (antibody, human IgG4 S228P, kappa, V domains shown)
VH: QVQLQQPGAELVKPGTSVKLSCKASGYSFISYWVYWVKQRPGQGLEWIGMIHPNSGSTNFNEKFRYKATLTVDKSSSTAYIQLSSLTSEDSAVYYCGRSDDGYPYHAMDSWGQGTSVTVSS
VL: DIVMTQSQKFMSTSVGDRVSVTCKASQNVGTNVAWYQQKPGQSPKALIYSASYRFSGVPDRFTGSGSGTDFTLTIGNVQSEDLAEYFCHQYKNYPLTFGGGTKLEIKR
B7: LK-RB1-30 (antibody, human IgG4 S228P, kappa, V domains shown)
VH: QVQLKESGPGLVAPSQSLSITCTVSGFSLTSYGVSWIRQPPGKGLEWLGVIWGDGNTNYHSALISRLSISKDNSKSQVFLKLNSLQTDDTATYYCAKPSWDYYAMDYWGQGTSVTVSS
VL: VIQMTQTTSSLSASLGDRVTISCRASQDISNYVNWYQQRPDGTVKLLISYTSRLHSGVPSRFSGSGSGTDYSLTITNLEQEDIATYFCQQGITLPCTFGGGTKLEINR
B8: LK-RB1-55 (antibody, human IgG4 S228P, kappa, V domains shown)
VH: EVKLVESGGGLVQPGGSLKLSCAASGFTFSDYYMYWVRQTPEKRLEWVAYISNGGDITFYPDTVKGRFTISRDNARSTLYLQMSRLKSEDTAIYYCASATTEVGAMDHWGQGTSVTVSS
VL: DIVMTQSQKFMSTTVGDRVSITCKASQNVGTAVAWYQQKPGKSPKLLIYAASNRYTGVPDRFTGSGSGTDFTLTISNMQSEDLADYFCQQYSSYRTFGGGTNLEIKR
B9: LK-RB1-57 (antibody, human IgG4 S228P, kappa, V domains shown)
VH: B8 VH with M83T
VL: B8 VL with M78V, N102S
B10: LK-RB1-52 (antibody, human IgG4 S228P, kappa, V domains shown)
VH: B8 VH with T28I, F59Y, N74I, S77N, Y80F, S84G, I93M
VL: B8 VL with K42Q, S92R
B11: LK-RB1-48 (antibody, human IgG4 S228P, kappa, V domains shown)
VH: B8 VH with D56G, T58S, R76K, S77N, T101K, H108Y
VL: B8 VL with M11L, K42Q, L46I, A50S, N102K
B12: LK-RB1-3 (antibody, human IgG4 S228P, kappa, V domains shown)
VH: QVQLQQPGAELVKPGTSVNLSCKASGYTFTSYWIHWVKQRPGRGLEWIGRINPYSSGTRYNEKFKNKATLTVDKPSSTAYMQLTSLTSEDSAVYYCARFDGAPDYFDFWGQGTTLTVSS
VL: DIVMTQSQKFMPTSVGDRVNVTCKASQNVGINVAWYQQKLGQSPKALIYSASYRYSGVPDRFTGSGSGTDFTLTINSVQSEDLADYFCQQYNNYPFTFGSGTKLEIKR
B13: LK-RB1-4 (antibody, human IgG4 S228P, kappa, V domains shown)
VH: QVQLQQPGAELVKPGASVKLPCKTSGYTFTSYWMHWVKQRPGRGLEWIGRIDPHYSGTKYNEKFKNKATMTVDTPSSTAYMQLSSLTSEDSAVYYCARFDGDPYYFDYWGPGTTLTVSS
VL: DIVMTQSQKFMSTSVGDRVSVTCKASQNVGTNVAWYKQKAGQSPKAVIYSASYRYSGVPDRFTGSGSGTDFTLSISNVQSEDLAEYFCQQYNNNPFTFGSGTKLEIKR
B14: LK-RB1-14 (antibody, human IgG4 S228P, kappa, V domains shown)
VH: QVTLKESGPGILKPSQTLSLTCSFSGFSLSTSGMGVGWIRQPSGKGLEWLAHIWWDDDKYYNPSLKSQLTISKDTSRNQVFLKITSVDTADTATYYCARTELGRGDSWGQGTSVTVSS
VL: B1 VL with R27Q, Y28S, N92Y, T93S, L96Y, A100G, L106I
B15: LK-RB1-6 (antibody, human IgG4 S228P, kappa, V domains shown)
VH: QIQLVQSGPELKKPGETVKISCKASGYTFTTYGMSWVKQAPGKDLKWMGWINTFSGVPACADDFQGRFDFSAEPSDSTAHLQINNLKNEDTATYFCARRSYYGSRGWYFDVWGTGTTVTVSS
VL: DIVMTQSHKFMSTSVGDRVSITCTASEDVNTAVAWYQQKPGQSPKLLIYWASTRHTGVPDRFTGSGSGTDYTLTISSVQTEDLALYYCQQHYNTPYTFGGGTKLEIKR
B16: LK-RB1-7 (antibody, human IgG4 S228P, kappa, V domains shown)
VH: B15 VH
VL: DVQMIQSPSSLSASLGDIVTMTCQASQDTTINLNWFQQKPGKVPKLLIYGASNLEDGVPSRFSGSSFGTDFTLTISSLEDEDMATYFCLQHTYLPRTFGGGTKLEIRR
B17: LK-RB1-17 (antibody, human IgG4 S228P, kappa, V domains shown)
VH: QVQLQQPGAELVKPGASVKLSCEASGYTFTNYWIHWVKQRPGRGLEWIGRIAPNSGGTKYNEKFKTRATLTVDKASTTAYMQLSSLTSEDSAVYYCARLDGSPYYFDYWGQGTTLTVSS
VL: B6 VL with V15I, G30D, F55Y, V58I, G76S, H89Q, K92N, N93S, L96Y
B18: LK-RB1-18 (antibody, human IgG4 S228P, kappa, V domains shown)
VH: B7 VH with S31N, Y32S, S35T, N56S, S99H, A104N
VL: DIQMTQTPSSLSASLGDRVTISCRASQDISNYLNWYQQKPDGTVKLLIYFTSRLHSGVPSRFSGSGSGTDYSLTISNLEQEDFATYFCQQGITLPLTFGAGTKLELKR
B19: LK-RB1-2 (antibody, human IgG4 S228P, kappa, V domains shown)
VH: QIQLVQSGPELKKPGETVKISCKASGYTFTTYGVSWVKQAPGKGLKWMGWINTYSGVSTYSDDFKGRFAFSLETSASTAYLQIINLKNEDAATYFCSRRRRTYDGYLSFDYWGQGTTLTVSS
VL: DIQMTQSPGSLSASVGETVTITCGASENIYGALNWFQRKPGKSPQLLIYGATNLADGMSSRFSGSGSGRQYSLQISSLRPDDVATYYCQNVLTTPWTFGGGTKVEIKR
B20: LK-RB1-8 (antibody, human IgG4 S228P, kappa, V domains shown)
VH: QVQLQQSGAELVRPGTSVKVSCKASGYAFSNYLIEWVKQRPGQGLEWIGVINPGSDGSTYNEKFKGKATLTADKSSNTAYMQLSSLTSEDSAVYFCARGDYGRSYGMDYWGQGTSVTVSS
VL: DIVMTQSQKFMSTTVGDRVSITCKASQNVGTAVVWYQQKPGQSPKLLIYSASNRYTGVPDRFTGSGSGTDFTLTISNMQSEDLADYFCQQYSSYMYTFGGGTKLEIKR
B21: LK-RB1-15 (antibody, human IgG4 S228P, kappa, V domains shown)
VH: B14 VH with L12V, T31I, M34T, V36I, L69V, R77T, N78K, K83N, A98T, S107F
VL: DILLTQSPAILSVSPGDRVSFSCRASQSIGTNIHWYQRRTNGSPRLLIKYGSESISGIPSRFSGSGTGTDFTLTINSVESEDIADYYCQQSYSWPYTFGGGTKLEIKR

Molecular target: T1, human LILRB1 on CHOK1 cells (human, UniProt Q8NHL6 24-650)
T1 construct: whole, on cells; also called CHOK1-hLILRB1; CHOK1-LILRB1
T1 sequence (Q8NHL6 24-650): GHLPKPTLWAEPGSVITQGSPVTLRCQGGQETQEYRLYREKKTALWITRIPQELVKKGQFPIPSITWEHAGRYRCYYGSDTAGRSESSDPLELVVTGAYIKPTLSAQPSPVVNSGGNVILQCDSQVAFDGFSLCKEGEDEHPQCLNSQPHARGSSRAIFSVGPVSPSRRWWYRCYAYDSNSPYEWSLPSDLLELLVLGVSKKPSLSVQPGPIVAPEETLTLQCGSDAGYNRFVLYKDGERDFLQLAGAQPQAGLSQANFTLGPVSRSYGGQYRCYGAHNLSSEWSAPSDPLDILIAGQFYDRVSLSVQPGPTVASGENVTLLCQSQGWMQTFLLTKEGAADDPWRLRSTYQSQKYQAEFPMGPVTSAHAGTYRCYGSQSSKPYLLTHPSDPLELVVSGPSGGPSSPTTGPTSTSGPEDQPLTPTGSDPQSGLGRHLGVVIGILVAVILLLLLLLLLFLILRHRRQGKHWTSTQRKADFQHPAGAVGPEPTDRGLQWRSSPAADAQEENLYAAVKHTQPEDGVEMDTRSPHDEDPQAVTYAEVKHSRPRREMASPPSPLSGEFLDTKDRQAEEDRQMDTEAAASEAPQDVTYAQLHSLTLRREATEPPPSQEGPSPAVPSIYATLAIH
Test: cell-based RBA (FACS): blocking of HLA-G binding to CHOK1-hLILRB1 cells

Binder	EC50 [nM]	Top Inhibition (%)
B1	3.69	21.7
B2	2.01	75.7
B3	0.68	95.7
B4	1.59	99
B5	2.32	91.4
B6	4.5	62.2
B7	0.7	95.6
B8	1.26	92.6
B9	1.67	90
B10	2.25	89.7
B11	1	86.7

Molecular target: T2, human LILRB2 on CHOK1 cells (human, UniProt Q8N423 22-597)
T2 construct: whole, on cells; also called CHOK1-hLILRB2; CHOK1-LILRB2
T2 sequence (Q8N423 22-597): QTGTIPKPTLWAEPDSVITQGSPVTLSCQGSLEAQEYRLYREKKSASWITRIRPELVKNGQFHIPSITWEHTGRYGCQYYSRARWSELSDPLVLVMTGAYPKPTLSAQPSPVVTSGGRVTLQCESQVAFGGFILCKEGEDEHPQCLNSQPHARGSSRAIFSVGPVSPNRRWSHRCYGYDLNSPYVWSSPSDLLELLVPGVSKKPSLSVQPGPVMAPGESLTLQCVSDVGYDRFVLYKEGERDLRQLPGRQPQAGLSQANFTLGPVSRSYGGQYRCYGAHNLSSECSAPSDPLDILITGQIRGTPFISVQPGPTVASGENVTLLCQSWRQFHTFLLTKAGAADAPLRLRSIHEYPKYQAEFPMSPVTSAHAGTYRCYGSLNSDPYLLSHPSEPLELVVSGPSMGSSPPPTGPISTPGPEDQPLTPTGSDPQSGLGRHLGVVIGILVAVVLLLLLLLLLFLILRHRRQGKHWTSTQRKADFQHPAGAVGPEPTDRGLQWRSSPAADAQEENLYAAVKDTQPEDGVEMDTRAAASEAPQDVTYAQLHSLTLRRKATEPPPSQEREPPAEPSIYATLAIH
Test: FACS binding, CHOK1-hLILRB2 cells

Binder	binding result	EC50 [nM]
B1	no binding	
B2	no binding	
B3		0.17
B4	no binding	
B5	no binding	
B6	no binding	
B7	no binding	
B8	no binding	
B9	no binding	
B10	no binding	
B11	no binding	

Molecular target: T3, human LILRB1 (human, UniProt Q8NHL6 24-458, limits assumed)
T3 construct: also called hLILRB1
T3 sequence (Q8NHL6 24-458 limits assumed): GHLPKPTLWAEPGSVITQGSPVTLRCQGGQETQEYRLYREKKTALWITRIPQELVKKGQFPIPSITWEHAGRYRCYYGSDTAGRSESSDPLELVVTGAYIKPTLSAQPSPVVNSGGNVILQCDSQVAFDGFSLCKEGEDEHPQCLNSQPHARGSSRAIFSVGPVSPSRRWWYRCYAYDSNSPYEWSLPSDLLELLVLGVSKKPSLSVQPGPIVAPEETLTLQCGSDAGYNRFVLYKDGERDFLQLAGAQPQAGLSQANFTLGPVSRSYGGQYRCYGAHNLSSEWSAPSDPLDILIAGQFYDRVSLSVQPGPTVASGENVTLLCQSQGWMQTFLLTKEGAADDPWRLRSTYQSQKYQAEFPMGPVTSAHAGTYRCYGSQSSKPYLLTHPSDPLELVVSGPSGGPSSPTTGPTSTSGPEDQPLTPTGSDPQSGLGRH
Test: Octet off-rate ranking;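 note: antibody dissociation rate constants against cynomolgus LILRB2 plus human LILRB1, LILRB2, LILRA1 and LILRA2, measured on an Octet instrument to rank binding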
Text: Binding affinity of anti-LILRB1 and anti-LILRB2 antibodies against human LILRB1, LILRB2, LILRA1, LILRA2 and cynomolgus LILRB2 was ranked by measuring dissociation rate constant (Kdis) using the Octet system.

Binder	koff [s⁻¹]
B12	5.24e-05
B13	2.79e-05
B14	0.00131
B15	0.00059
B16	0.00059
B17	0.000312
B18	8.15e-05
B19	0.000118
B20	0.000218
B21	0.000103

Molecular target: T1, human LILRB1 on CHOK1 cells
Test: FACS binding, CHOK1-hLILRB1 cells

Binder	EC50 [nM]
B1	1.56
B2	0.71
B3	0.77
B4	1.13
B5	2.05
B6	0.89
B7	1.06
B8	1.68
B9	1.78
B10	1.8
B11	1.06
